Experimental data published in publication PMC3509656.
Residue numbers refer to the chain shown, from its start.

Key:
Assay in all cases: EMSA
Details in all cases: 40 mM Tris pH 7.6, 85 mM KCl, 19% glycerol, 4 mg/mL BSA, 0.5 mg/mL calf thymus DNA, 30 min at 30 C; 6% native PAGE in 0.5x TBE
[1] = molecular target: T1, TorI-Y28F Y28F (Escherichia coli K-12 MG1655? (KplE1 prophage)) (UniProt Q2EES9)
T1 sequence: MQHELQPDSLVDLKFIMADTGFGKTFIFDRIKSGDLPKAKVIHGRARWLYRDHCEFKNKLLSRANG

[2] = molecular target: T2, TorI-F22I F22I (Escherichia coli K-12 MG1655? (KplE1 prophage)) (UniProt Q2EES9)
T2 sequence: T1 sequence with F22I, F28Y

[3] = molecular target: T3, TorI-L61S L61S (Escherichia coli K-12 MG1655? (KplE1 prophage)) (UniProt Q2EES9)
T3 sequence: T1 sequence with F28Y, L61S

[4] = molecular target: T4, TorI-M17V M17V (Escherichia coli K-12 MG1655? (KplE1 prophage)) (UniProt Q2EES9)
T4 sequence: T1 sequence with M17V, F28Y

[5] = molecular target: T5, TorI-A46V A46V (Escherichia coli K-12 MG1655? (KplE1 prophage)) (UniProt Q2EES9)
T5 sequence: T1 sequence with F28Y, A46V

[6] = molecular target: T6, TorI-R45Q R45Q (Escherichia coli K-12 MG1655? (KplE1 prophage)) (UniProt Q2EES9)
T6 sequence: T1 sequence with F28Y, R45Q

[7] = molecular target: T7, TorI-F15L F15L (Escherichia coli K-12 MG1655? (KplE1 prophage)) (UniProt Q2EES9)
T7 sequence: T1 sequence with F15L, F28Y

In the case of “CATCGAGAAGGCGGTATGGTTTTTCTTTCGGCTTTGCTGCTTCAATCTGCTTAACGGTGAGCATGGGTAAAAATCCGGTGGGTAAAATTATTTTATCCACTTTTTACCCGTCATGGAGTGCGGCTGTCAACGATCTGAAGCGAACCATGACGAACTGTAAATCTACGGAATGCTTGATATTCAGGGGATTTTGCGGACTGGTACGGATGGGAGCGAACTGATAAATGGTGTCCCCTGCAGGAATCGAACCTGCAATTAGCCCTTAGGAGGGGCTCGTTATATCCATT (double strand) [KplE1 attL]”, the binding [1] is reported as “binds more weakly”, the binding [2] is reported as “no binding” and the binding [3] is reported as “binds”. For the same sequence, the binding [4] was “binds more weakly”, the binding [5] was “binds more weakly” and the binding [6] was “binds more weakly”. The binding [7] was “binds more weakly”.
